Assay results reported in patent publication US20120220489A1.

Legend:
[1] = molecular target: pRb recombinant protein, human, Active Motif 31 128 (human) (UniProt P06400); experiment: RPA standard curves, mean of duplicate assays
[2] = molecular target: pRb-BSA 1x peptide-protein conjugate (bovine); experiment: RPA standard curves, mean of duplicate assays
[3] = molecular target: pRb recombinant protein, human, Active Motif 31 128 (human) (UniProt P06400); experiment: RPA standard curve, assay 1, LOD back-calculated from one-site fit
[4] = molecular target: pRb-BSA 1x peptide-protein conjugate (bovine); experiment: as above
[5] = molecular target: pRb recombinant protein, human, Active Motif 31 128 (human) (UniProt P06400); experiment: RPA, competition: +free pRb peptide 100 nM
[6] = molecular target: ERK1 (p42) active (phospho), human, Active Motif 31 152 (human) (UniProt P27361); experiment: RPA, competition: +free pRb peptide 100 nM
[7] = molecular target: Histone H3-BSA 2.7x peptide-protein conjugate (bovine); experiment: RPA, competition: +free pRb peptide 100 nM
[8] = molecular target: ERK1 (p44) inactive (GST tagged), human, Invitrogen PV 3312 (human) (UniProt P27361); experiment: RPA, competition: +free pRb peptide 100 nM
[9] = molecular target: pRb-BSA 1x peptide-protein conjugate (bovine); experiment: RPA, competition: +free pRb peptide 100 nM
[10] = molecular target: Histone H3 recombinant protein, human, Upstate 14-494 (human) (UniProt P68431); experiment: RPA, competition: +free pRb peptide 100 nM
[11] = molecular target: Erk1-BSA 2.7x peptide-protein conjugate (human; bovine); experiment: RPA, competition: +free pRb peptide 100 nM
[12] = molecular target: ERK1 (p44) active (GST tagged), human, Invitrogen PV 3311 (human) (UniProt P27361); experiment: RPA, competition: +free pRb peptide 100 nM
[13] = molecular target: Histone H3 recombinant protein, calf, Roche 11 034 758 001 (calf) (UniProt P68432); experiment: RPA, competition: +free pRb peptide 100 nM
[14] = molecular target: ERK1 (p44), human, Cell Signaling Technology 7416 (human) (UniProt P27361); experiment: RPA, competition: +free pRb peptide 100 nM
[15] = molecular target: ERK2 (p42), human, Biosource PHO 0104 (human) (UniProt P28482); experiment: RPA, competition: +free pRb peptide 100 nM
[16] = molecular target: pErk1/2-BSA 2.7x peptide-protein conjugate (human; bovine); experiment: RPA, competition: +free pRb peptide 100 nM
[17] = molecular target: pRb recombinant protein, human, Active Motif 31 128 (human) (UniProt P06400); experiment: RPA, normal assay
[18] = molecular target: Histone H3-BSA 2.7x peptide-protein conjugate (bovine); experiment: RPA, normal assay
[19] = molecular target: pRb-BSA 1x peptide-protein conjugate (bovine); experiment: RPA, normal assay
[20] = molecular target: Histone H3 recombinant protein, human, Upstate 14-494 (human) (UniProt P68431); experiment: RPA, normal assay
[21] = molecular target: Erk1-BSA 2.7x peptide-protein conjugate (human; bovine); experiment: RPA, normal assay
[22] = molecular target: pRb recombinant protein, human, Active Motif 31 128 (human) (UniProt P06400); experiment: RPA, competition: +free pRb peptide 10 nM
[23] = molecular target: ERK1 (p42) active (phospho), human, Active Motif 31 152 (human) (UniProt P27361); experiment: RPA, competition: +free pRb peptide 10 nM
[24] = molecular target: Histone H3-BSA 2.7x peptide-protein conjugate (bovine); experiment: RPA, competition: +free pRb peptide 10 nM
[25] = molecular target: ERK1 (p44) inactive (GST tagged), human, Invitrogen PV 3312 (human) (UniProt P27361); experiment: RPA, competition: +free pRb peptide 10 nM
[26] = molecular target: pRb-BSA 1x peptide-protein conjugate (bovine); experiment: RPA, competition: +free pRb peptide 10 nM
[27] = molecular target: Histone H3 recombinant protein, human, Upstate 14-494 (human) (UniProt P68431); experiment: RPA, competition: +free pRb peptide 10 nM
[28] = molecular target: Erk1-BSA 2.7x peptide-protein conjugate (human; bovine); experiment: RPA, competition: +free pRb peptide 10 nM
[29] = molecular target: ERK1 (p44) active (GST tagged), human, Invitrogen PV 3311 (human) (UniProt P27361); experiment: RPA, competition: +free pRb peptide 10 nM
[30] = molecular target: Histone H3 recombinant protein, calf, Roche 11 034 758 001 (calf) (UniProt P68432); experiment: RPA, competition: +free pRb peptide 10 nM
[31] = molecular target: ERK1 (p44), human, Cell Signaling Technology 7416 (human) (UniProt P27361); experiment: RPA, competition: +free pRb peptide 10 nM
[32] = molecular target: ERK2 (p42), human, Biosource PHO 0104 (human) (UniProt P28482); experiment: RPA, competition: +free pRb peptide 10 nM
[33] = molecular target: pErk1/2-BSA 2.7x peptide-protein conjugate (human; bovine); experiment: RPA, competition: +free pRb peptide 10 nM
[34] = molecular target: pRb recombinant protein, human, Active Motif 31 128 (human) (UniProt P06400); experiment: RPA standard curve, assay 2, LOD back-calculated from one-site fit
[35] = molecular target: pRb-BSA 1x peptide-protein conjugate (bovine); experiment: as above
[36] = molecular target: pRb recombinant protein, human, Active Motif 31 128 (human) (UniProt P06400); experiment: RPA standard curves
[37] = molecular target: pRb recombinant protein, human, Active Motif 31 128 (human) (UniProt P06400); experiment: RPA, competition: +free pRb peptide 1000 nM
[38] = molecular target: ERK1 (p42) active (phospho), human, Active Motif 31 152 (human) (UniProt P27361); experiment: RPA, competition: +free pRb peptide 1000 nM
[39] = molecular target: Histone H3-BSA 2.7x peptide-protein conjugate (bovine); experiment: RPA, competition: +free pRb peptide 1000 nM
[40] = molecular target: ERK1 (p44) inactive (GST tagged), human, Invitrogen PV 3312 (human) (UniProt P27361); experiment: RPA, competition: +free pRb peptide 1000 nM
[41] = molecular target: pRb-BSA 1x peptide-protein conjugate (bovine); experiment: RPA, competition: +free pRb peptide 1000 nM
[42] = molecular target: Histone H3 recombinant protein, human, Upstate 14-494 (human) (UniProt P68431); experiment: RPA, competition: +free pRb peptide 1000 nM
[43] = molecular target: Erk1-BSA 2.7x peptide-protein conjugate (human; bovine); experiment: RPA, competition: +free pRb peptide 1000 nM
[44] = molecular target: ERK1 (p44) active (GST tagged), human, Invitrogen PV 3311 (human) (UniProt P27361); experiment: RPA, competition: +free pRb peptide 1000 nM
[45] = molecular target: Histone H3 recombinant protein, calf, Roche 11 034 758 001 (calf) (UniProt P68432); experiment: RPA, competition: +free pRb peptide 1000 nM
[46] = molecular target: ERK1 (p44), human, Cell Signaling Technology 7416 (human) (UniProt P27361); experiment: RPA, competition: +free pRb peptide 1000 nM
[47] = molecular target: ERK2 (p42), human, Biosource PHO 0104 (human) (UniProt P28482); experiment: RPA, competition: +free pRb peptide 1000 nM
[48] = molecular target: pErk1/2-BSA 2.7x peptide-protein conjugate (human; bovine); experiment: RPA, competition: +free pRb peptide 1000 nM

Chain of Erk1-BSA 2.7x peptide-protein conjugate (human; bovine) (peptide, as listed by the source limits assumed, chain 1 of 2): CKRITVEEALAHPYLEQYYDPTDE
Chain of Erk1-BSA 2.7x peptide-protein conjugate (human; bovine) (P02769 25-607 limits assumed, chain 2 of 2): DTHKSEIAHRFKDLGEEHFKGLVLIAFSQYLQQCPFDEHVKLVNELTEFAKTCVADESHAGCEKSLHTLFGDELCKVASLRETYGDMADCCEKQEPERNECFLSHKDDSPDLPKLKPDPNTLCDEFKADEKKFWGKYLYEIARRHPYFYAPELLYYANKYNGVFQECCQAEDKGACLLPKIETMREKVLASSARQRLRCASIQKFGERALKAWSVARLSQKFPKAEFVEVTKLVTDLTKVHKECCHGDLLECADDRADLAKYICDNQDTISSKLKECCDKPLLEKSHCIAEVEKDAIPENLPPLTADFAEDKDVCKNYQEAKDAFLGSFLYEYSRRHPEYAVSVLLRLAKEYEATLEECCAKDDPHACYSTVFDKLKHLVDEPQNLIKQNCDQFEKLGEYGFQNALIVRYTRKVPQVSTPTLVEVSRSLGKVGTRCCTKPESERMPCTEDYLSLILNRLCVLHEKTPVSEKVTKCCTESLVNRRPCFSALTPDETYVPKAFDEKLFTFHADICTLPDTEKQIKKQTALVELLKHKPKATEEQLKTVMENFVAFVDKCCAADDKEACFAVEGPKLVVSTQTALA
Chain of Histone H3-BSA 2.7x peptide-protein conjugate (bovine) (P02769 25-607 limits assumed): as the sequence (P02769 25-607 limits assumed, chain 2 of 2) above
Chain of pRb-BSA 1x peptide-protein conjugate (bovine) (P02769 25-607 limits assumed): as the sequence (P02769 25-607 limits assumed, chain 2 of 2) above
Chain of pErk1/2-BSA 2.7x peptide-protein conjugate (human; bovine) (P02769 25-607 limits assumed): as the sequence (P02769 25-607 limits assumed, chain 2 of 2) above
Chain of UniProt P28482 (P28482 2-360 limits assumed): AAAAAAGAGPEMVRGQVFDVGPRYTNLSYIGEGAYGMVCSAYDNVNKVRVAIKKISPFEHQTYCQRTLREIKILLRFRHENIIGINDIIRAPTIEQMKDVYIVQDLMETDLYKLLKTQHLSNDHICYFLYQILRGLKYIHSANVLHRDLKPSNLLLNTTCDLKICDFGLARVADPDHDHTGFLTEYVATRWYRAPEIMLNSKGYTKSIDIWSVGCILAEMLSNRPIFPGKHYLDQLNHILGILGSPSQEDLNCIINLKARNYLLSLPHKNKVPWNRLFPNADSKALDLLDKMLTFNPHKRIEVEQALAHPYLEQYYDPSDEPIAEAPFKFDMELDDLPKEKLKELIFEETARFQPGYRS
Chain of UniProt P06400 (P06400 whole entry): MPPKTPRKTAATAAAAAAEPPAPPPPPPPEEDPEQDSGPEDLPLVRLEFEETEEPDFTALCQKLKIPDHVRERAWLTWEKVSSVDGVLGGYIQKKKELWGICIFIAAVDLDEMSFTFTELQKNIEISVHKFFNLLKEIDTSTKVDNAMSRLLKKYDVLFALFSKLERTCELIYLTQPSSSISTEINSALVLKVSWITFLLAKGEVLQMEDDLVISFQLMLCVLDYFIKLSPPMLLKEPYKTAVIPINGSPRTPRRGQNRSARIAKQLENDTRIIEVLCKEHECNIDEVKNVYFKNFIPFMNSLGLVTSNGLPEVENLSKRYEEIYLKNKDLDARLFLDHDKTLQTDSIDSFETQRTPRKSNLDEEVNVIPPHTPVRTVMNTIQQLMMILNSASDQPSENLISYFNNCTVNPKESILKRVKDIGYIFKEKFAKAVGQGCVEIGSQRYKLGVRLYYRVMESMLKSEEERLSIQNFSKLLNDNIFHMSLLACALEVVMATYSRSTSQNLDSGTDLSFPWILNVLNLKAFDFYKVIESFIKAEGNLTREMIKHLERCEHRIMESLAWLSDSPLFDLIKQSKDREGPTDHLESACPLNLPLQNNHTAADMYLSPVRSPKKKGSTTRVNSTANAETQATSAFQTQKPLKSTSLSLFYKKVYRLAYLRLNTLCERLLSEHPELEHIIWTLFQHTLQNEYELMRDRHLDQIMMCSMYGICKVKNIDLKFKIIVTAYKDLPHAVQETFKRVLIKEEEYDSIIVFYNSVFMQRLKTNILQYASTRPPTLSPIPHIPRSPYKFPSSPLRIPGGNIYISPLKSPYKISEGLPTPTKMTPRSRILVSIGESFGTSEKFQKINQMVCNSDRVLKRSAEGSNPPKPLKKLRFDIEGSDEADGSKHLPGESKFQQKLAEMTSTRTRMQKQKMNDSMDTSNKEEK

Rb phospho (pRb) Ser807/811 antibody, Cell Signaling Technology #9308
mean LOD [1]: 0.097 nM
mean LOD [2]: 0.025 nM
LOD [3]: 0.117 nM
LOD [4]: 0.024 nM
maximum standard curve signal [5]: < 0.01 RFI
maximum standard curve signal [6]: < 0.01 RFI
maximum standard curve signal [7]: 0.02 RFI
maximum standard curve signal [8]: < 0.01 RFI
maximum standard curve signal [9]: < 0.01 RFI
maximum standard curve signal [10]: < 0.01 RFI
maximum standard curve signal [11]: < 0.01 RFI
maximum standard curve signal [12]: < 0.01 RFI
maximum standard curve signal [13]: < 0.01 RFI
maximum standard curve signal [14]: < 0.01 RFI
maximum standard curve signal [15]: < 0.01 RFI
maximum standard curve signal [16]: < 0.01 RFI
maximum standard curve signal [17]: 0.04 RFI
maximum standard curve signal [18]: 0.03 RFI
maximum standard curve signal [19]: 0.47 RFI
maximum standard curve signal [20]: 0.01 RFI
maximum standard curve signal [21]: 0.01 RFI
maximum standard curve signal [22]: < 0.01 RFI
maximum standard curve signal [23]: < 0.01 RFI
maximum standard curve signal [24]: 0.02 RFI
maximum standard curve signal [25]: < 0.01 RFI
maximum standard curve signal [26]: 0.07 RFI
maximum standard curve signal [27]: < 0.01 RFI
maximum standard curve signal [28]: < 0.01 RFI
maximum standard curve signal [29]: < 0.01 RFI
maximum standard curve signal [30]: < 0.01 RFI
maximum standard curve signal [31]: < 0.01 RFI
maximum standard curve signal [32]: < 0.01 RFI
maximum standard curve signal [33]: 0.01 RFI
LOD [34]: 0.077 nM
LOD [35]: 0.026 nM
signal intensity relative to the pRb-BSA peptide standard curves [36]: 10%
maximum standard curve signal [37]: < 0.01 RFI
maximum standard curve signal [38]: < 0.01 RFI
maximum standard curve signal [39]: 0.01 RFI
maximum standard curve signal [40]: < 0.01 RFI
maximum standard curve signal [41]: < 0.01 RFI
maximum standard curve signal [42]: < 0.01 RFI
maximum standard curve signal [43]: < 0.01 RFI
maximum standard curve signal [44]: < 0.01 RFI
maximum standard curve signal [45]: < 0.01 RFI
maximum standard curve signal [46]: < 0.01 RFI
maximum standard curve signal [47]: < 0.01 RFI
maximum standard curve signal [48]: < 0.01 RFI
